According to paper PMC9886983, “Mechanism of regulation of the Helicobacter pylori Cagβ ATPase by CagZ” (Nature Communications, 2023):

Legend:
[1] = molecular target: T1, Cagβ-AAD2 (residues 289-505) (Helicobacter pylori 26695, UniProt O25260 289-505); experiment: ITC; ITC-200, 25 °C, 20 mM Tris pH 8.0, 150 mM NaCl; Cagβ proteins (20 µM) in the cell, CagZ proteins (200 µM) in the syringe; conditions: both partners purified
T1 construct: Cagβ (HP0524, Cag5) of Helicobacter pylori 26695, residues 289-505, holds the all-alpha domain (AAD); also called Cagβ-AAD2 (289-505); source: E. coli BL21 star (DE3), purified (Ni-NTA, TEV, second Ni-NTA, SEC); not shown: His6, N-terminal, cleaved; TrxA, N-terminal, cleaved
T1 sequence: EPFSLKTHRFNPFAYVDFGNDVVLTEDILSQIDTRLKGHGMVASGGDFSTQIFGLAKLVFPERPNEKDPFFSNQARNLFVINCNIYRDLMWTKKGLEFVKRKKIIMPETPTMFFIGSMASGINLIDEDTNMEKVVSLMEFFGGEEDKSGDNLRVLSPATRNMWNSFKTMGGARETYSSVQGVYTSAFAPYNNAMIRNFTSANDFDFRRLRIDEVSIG

Cagβ2 (residues 243-748) = molecular target: T2, Cagβ2 (residues 243-748) (Helicobacter pylori 26695, UniProt O25260 243-748); experiment: as above; conditions: both partners purified
T2 construct: Cagβ (HP0524, Cag5) of Helicobacter pylori 26695, residues 243-748; also called Cagβ2 (243-748); source: E. coli BL21 star (DE3), purified (Ni-NTA, TEV, second Ni-NTA, SEC); not shown: His6, N-terminal, cleaved; TrxA, N-terminal, cleaved
T2 sequence: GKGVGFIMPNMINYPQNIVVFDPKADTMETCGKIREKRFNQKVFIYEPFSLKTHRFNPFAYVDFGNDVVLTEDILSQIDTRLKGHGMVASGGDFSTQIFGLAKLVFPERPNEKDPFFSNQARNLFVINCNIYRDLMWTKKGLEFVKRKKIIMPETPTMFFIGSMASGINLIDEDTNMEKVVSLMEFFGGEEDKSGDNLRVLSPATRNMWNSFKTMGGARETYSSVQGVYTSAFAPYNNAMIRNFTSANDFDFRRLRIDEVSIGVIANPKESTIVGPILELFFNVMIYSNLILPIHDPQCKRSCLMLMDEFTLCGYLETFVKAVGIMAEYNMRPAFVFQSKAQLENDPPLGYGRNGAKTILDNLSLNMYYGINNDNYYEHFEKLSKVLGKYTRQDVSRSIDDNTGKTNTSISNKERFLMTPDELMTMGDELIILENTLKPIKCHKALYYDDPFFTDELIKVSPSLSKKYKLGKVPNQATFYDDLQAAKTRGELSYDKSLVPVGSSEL

[2] = molecular target: T3, Cagβ1 (soluble region of Cagβ, residues 166-748) (Helicobacter pylori 26695, UniProt O25260 166-748); experiment: as above; conditions: both partners purified
T3 construct: Cagβ (HP0524, Cag5; VirD4 homolog) of Helicobacter pylori 26695, residues 166-748, soluble region without the transmembrane region; also called Cagβ1(166-748); Cagβ-WT; source: E. coli BL21 star (DE3), purified (Ni-NTA, TEV, second Ni-NTA, SEC); not shown: His6, N-terminal, cleaved; TrxA, N-terminal, cleaved
T3 sequence: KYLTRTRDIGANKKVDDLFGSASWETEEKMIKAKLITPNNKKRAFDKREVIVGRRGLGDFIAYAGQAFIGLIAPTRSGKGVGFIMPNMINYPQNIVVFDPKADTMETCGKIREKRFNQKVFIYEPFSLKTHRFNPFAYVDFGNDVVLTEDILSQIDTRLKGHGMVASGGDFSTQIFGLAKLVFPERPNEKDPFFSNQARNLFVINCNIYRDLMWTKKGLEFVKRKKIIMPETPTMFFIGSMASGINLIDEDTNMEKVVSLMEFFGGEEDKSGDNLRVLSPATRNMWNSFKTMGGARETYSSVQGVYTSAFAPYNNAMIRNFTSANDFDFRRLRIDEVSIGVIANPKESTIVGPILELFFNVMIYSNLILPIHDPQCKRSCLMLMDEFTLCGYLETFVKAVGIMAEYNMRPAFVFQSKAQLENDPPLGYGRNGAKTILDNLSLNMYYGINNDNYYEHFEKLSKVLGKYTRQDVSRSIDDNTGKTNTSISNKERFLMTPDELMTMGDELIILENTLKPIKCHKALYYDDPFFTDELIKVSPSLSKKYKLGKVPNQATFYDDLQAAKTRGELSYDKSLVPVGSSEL

[3] = molecular target: T4, Cagβ-AAD1 (residues 289-488) E396A (Helicobacter pylori 26695, UniProt O25260 289-488, E396A); experiment: as above; conditions: both partners purified
T4 construct: Cagβ (HP0524, Cag5) of Helicobacter pylori 26695, residues 289-488, with E396A; also called Cagβ-AAD1_E396A; source: E. coli BL21 star (DE3), purified as the wild type but without TEV protease treatment; not shown: His6, N-terminal, kept; TrxA, N-terminal, kept
T4 sequence: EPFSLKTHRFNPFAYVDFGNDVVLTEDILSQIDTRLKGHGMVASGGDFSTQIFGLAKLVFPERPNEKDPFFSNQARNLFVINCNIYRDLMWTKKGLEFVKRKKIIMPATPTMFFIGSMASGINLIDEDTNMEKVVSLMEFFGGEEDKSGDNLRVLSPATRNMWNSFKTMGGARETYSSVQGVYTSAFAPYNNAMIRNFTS

[4] = molecular target: the molecule itself; experiment: crystal structure; apo-Cagβ1, 2.8 Å; crystals from 35% PEG400, 0.2 M Li2SO4, 0.1 M Tris 8.5 at 285 K; six protomers in the asymmetric unit

Row | Binder | Kd [1] [nM] | Kd (Cagβ2 (residues 243-748)) [nM] | Kd [2] [nM] | Kd [3] [nM] | stoichiometry N [4]
1 | CagZ (residues 2-199), wild type (natural protein, CagZ of Helicobacter pylori 26695, residues 2-199; also called CagZ-WT; source: E. coli BL21 star (DE3), purified (Ni-NTA, TEV, second Ni-NTA, SEC); not shown: His6, N-terminal, cleaved; TrxA, N-terminal, cleaved) ELGFNETERQKILDSNKSLMGNANEVRDKFIQNYASSLKDSNDPQDFLRRVQELRINMQKNFISFDVYYNYLNNLVLASYNRCKQEKTFAESTIKNELTLGEFVAEISDNFNNFMCDEVARISDLVASYLPREYLPPFIDGNMMGVAFQILGIDDFGRKLNEIVQDIGTKYIILSKNKTYLTSLERAKLITQLKLNLE | 20 | 20 | 50 | ~50 | –
2 | Cagβ1 (soluble region of Cagβ, residues 166–748) (domain or fragment, Cagβ (HP0524, Cag5; VirD4 homolog) of H. pylori 26695, residues 166-748, the soluble (cytosolic) region; Dynamic hexamer; monomer at low concentration; also called apo-Cagβ1; HP0524; source: E. coli BL21 star (DE3), purified (Ni-NTA, TEV cleavage, second Ni-NTA, SEC); also co-expressed with CagZ-pET-28a and co-purified; not shown: His6, N-terminal, cleaved; TrxA, N-terminal, cleaved) KYLTRTRDIGANKKVDDLFGSASWETEEKMIKAKLITPNNKKRAFDKREVIVGRRGLGDFIAYAGQAFIGLIAPTRSGKGVGFIMPNMINYPQNIVVFDPKADTMETCGKIREKRFNQKVFIYEPFSLKTHRFNPFAYVDFGNDVVLTEDILSQIDTRLKGHGMVASGGDFSTQIFGLAKLVFPERPNEKDPFFSNQARNLFVINCNIYRDLMWTKKGLEFVKRKKIIMPETPTMFFIGSMASGINLIDEDTNMEKVVSLMEFFGGEEDKSGDNLRVLSPATRNMWNSFKTMGGARETYSSVQGVYTSAFAPYNNAMIRNFTSANDFDFRRLRIDEVSIGVIANPKESTIVGPILELFFNVMIYSNLILPIHDPQCKRSCLMLMDEFTLCGYLETFVKAVGIMAEYNMRPAFVFQSKAQLENDPPLGYGRNGAKTILDNLSLNMYYGINNDNYYEHFEKLSKVLGKYTRQDVSRSIDDNTGKTNTSISNKERFLMTPDELMTMGDELIILENTLKPIKCHKALYYDDPFFTDELIKVSPSLSKKYKLGKVPNQATFYDDLQAAKTRGELSYDKSLVPVGSSEL | – | – | – | – | 6
